Paper PMC2705282 (Journal of molecular biology, 2009)

B1: wild-type URO-D module of single-chain URO-D (enzyme, human)
chain: MEANGLGPQGFPELKNDTFLRAAWGEETDYTPVWCMRQAGRYLPEFRETRAAQDFFSTCRSPEACCELTLQPLRRFPLDAAIIFSDILVVPQALGMEVTMVPGKGPSFPEPLREEQDLERLRDPEVVASELGYVFQAITLTRQRLAGRVPLIGFAGAPWTLMTYMVEGGGSSTMAQAKRWLYQRPQASHQLLRILTDALVPYLVGQVVAGAQALQLFESHAGHLGPQLFNKFALPYIRDVAKQVKARLREAGLAPVPMIIFAKDGHFALEELAQAGYEVVGLDWTVAPKKARECVGKTVTLQGNLDPCALYASEEEIGQLVKQMLDDFGPHRYIANLGHGLYPDMDPEHVGAFVDAVHKHSRLLRQN
B2: Y164G URO-D module of single-chain URO-D (enzyme, human)
chain: MEANGLGPQGFPELKNDTFLRAAWGEETDYTPVWCMRQAGRYLPEFRETRAAQDFFSTCRSPEACCELTLQPLRRFPLDAAIIFSDILVVPQALGMEVTMVPGKGPSFPEPLREEQDLERLRDPEVVASELGYVFQAITLTRQRLAGRVPLIGFAGAPWTLMTGMVEGGGSSTMAQAKRWLYQRPQASHQLLRILTDALVPYLVGQVVAGAQALQLFESHAGHLGPQLFNKFALPYIRDVAKQVKARLREAGLAPVPMIIFAKDGHFALEELAQAGYEVVGLDWTVAPKKARECVGKTVTLQGNLDPCALYASEEEIGQLVKQMLDDFGPHRYIANLGHGLYPDMDPEHVGAFVDAVHKHSRLLRQN
B3: F217Y URO-D module of single-chain URO-D (enzyme, human)
chain: MEANGLGPQGFPELKNDTFLRAAWGEETDYTPVWCMRQAGRYLPEFRETRAAQDFFSTCRSPEACCELTLQPLRRFPLDAAIIFSDILVVPQALGMEVTMVPGKGPSFPEPLREEQDLERLRDPEVVASELGYVFQAITLTRQRLAGRVPLIGFAGAPWTLMTYMVEGGGSSTMAQAKRWLYQRPQASHQLLRILTDALVPYLVGQVVAGAQALQLYESHAGHLGPQLFNKFALPYIRDVAKQVKARLREAGLAPVPMIIFAKDGHFALEELAQAGYEVVGLDWTVAPKKARECVGKTVTLQGNLDPCALYASEEEIGQLVKQMLDDFGPHRYIANLGHGLYPDMDPEHVGAFVDAVHKHSRLLRQN

Assays:
[1] = target: B3; assay: crystal structure
[2] = target: B1; assay: crystal structure

| binding result [1] | binding result [2] | Binder |
| --- | --- | --- |
| binds |  | B1 |
|  | binds | B2 |
|  | binds | B3 |
